From paper doi:10.1101/2023.05.17.541065 come the findings set out here.

The target of one series is T1, EIL1-GST (tomato, UniProt Q94FV4 1-610).
T1 sequence: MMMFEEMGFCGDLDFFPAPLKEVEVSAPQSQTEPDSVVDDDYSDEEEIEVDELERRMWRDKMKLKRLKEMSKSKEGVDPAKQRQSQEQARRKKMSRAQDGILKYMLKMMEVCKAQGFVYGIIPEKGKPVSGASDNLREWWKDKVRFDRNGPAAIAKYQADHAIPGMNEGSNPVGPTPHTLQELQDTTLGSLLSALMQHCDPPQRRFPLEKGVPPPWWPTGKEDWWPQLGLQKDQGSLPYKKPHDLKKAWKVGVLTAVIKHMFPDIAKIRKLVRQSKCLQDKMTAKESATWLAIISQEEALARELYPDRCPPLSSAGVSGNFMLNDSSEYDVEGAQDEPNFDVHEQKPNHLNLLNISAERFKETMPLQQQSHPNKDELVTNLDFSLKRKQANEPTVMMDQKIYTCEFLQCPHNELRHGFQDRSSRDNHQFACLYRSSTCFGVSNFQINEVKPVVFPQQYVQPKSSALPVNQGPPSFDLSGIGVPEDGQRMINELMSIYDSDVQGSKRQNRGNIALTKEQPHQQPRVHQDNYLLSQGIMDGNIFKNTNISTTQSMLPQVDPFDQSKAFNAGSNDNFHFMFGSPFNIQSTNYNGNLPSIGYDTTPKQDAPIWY
Description: EMSA. (In EMSA bound probe runs differently from free probe, usually more slowly.)

Another series deals with MYC2-TF (tomato, UniProt A0A3Q7HRZ6 1-689). Description: EMSA.
MYC2-TF, sequence (A0A3Q7HRZ6 whole entry): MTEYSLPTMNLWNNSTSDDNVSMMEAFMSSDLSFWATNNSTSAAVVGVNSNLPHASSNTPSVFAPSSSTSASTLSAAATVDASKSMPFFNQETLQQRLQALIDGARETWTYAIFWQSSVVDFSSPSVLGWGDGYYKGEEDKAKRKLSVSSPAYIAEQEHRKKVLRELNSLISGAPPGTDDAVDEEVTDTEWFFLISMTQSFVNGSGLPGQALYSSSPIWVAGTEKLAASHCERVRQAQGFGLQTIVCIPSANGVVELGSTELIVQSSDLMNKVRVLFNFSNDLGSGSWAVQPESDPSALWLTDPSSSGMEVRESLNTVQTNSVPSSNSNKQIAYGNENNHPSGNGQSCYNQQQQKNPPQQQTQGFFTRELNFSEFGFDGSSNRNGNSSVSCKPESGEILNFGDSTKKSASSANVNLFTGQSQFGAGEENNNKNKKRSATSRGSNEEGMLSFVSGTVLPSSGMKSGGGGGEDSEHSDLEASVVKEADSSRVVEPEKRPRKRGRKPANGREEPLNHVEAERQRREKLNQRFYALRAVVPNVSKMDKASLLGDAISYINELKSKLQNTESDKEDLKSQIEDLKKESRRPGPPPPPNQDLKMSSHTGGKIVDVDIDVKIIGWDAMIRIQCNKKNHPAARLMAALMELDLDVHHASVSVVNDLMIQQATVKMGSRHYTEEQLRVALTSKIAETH

B1: CYP94C1 promoter EBS probe (dsDNA)
DNA 1: TGTGTCTTTTTTCAATAAAGGTGATGTATCGGGACAAGATGCATCGGACGCTG
DNA 2: CAGCGTCCGATGCATCTTGTCCCGATACATCACCTTTATTGAAAAAAGACACA
Consider B1, for which the binding result with EIL1-GST is given as “binds”.

B2: CYP94B promoter G-box probe (dsDNA)
DNA 1: TTTACGCGCACAAGAAACACGTGATTTAAATGCATAATTA
DNA 2: TAATTATGCATTTAAATCACGTGTTTCTTGTGCGCGTAAA
As to B2, in the series with MYC2-TF, the binding result is “binds”.
